Assay results from publication PMC9482650, “Quantitative fragmentomics allow affinity mapping of interactomes” (Nature Communications, 2022).

How the values were obtained:
Test in all cases: holdup assay
Parameters in all cases: key: below the threshold = too weak to quantify, mostly under pKd 3.1 to 4
NHERF3_1, Q5T2W1 = biological target: T1, NHERF3_1, Q5T2W1
T1 sequence (Q5T2W1 4-100, limits assumed, looked up): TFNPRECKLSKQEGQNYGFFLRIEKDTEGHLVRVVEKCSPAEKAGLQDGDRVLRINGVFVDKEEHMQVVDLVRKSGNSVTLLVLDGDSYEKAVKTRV

Inadl_5, Q8NI35 = biological target: Inadl_5, Q8NI35
MAGI1_2, Q96QZ7 = biological target: MAGI1_2, Q96QZ7
APBA3_1, O96018 = biological target: T2, APBA3_1, O96018
T2 sequence (O96018 389-490, limits assumed, looked up): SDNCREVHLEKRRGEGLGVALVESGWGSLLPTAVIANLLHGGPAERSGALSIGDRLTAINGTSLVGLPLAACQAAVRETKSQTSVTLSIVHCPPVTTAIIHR

MAGI2_4, Q86UL8 = biological target: MAGI2_4, Q86UL8
CASK, O14936 = biological target: CASK, O14936
PDZRN4_1, Q6ZMN7 = biological target: PDZRN4_1, Q6ZMN7
MPDZ_12, O75970 = biological target: T3, MPDZ_12, O75970
T3 sequence (O75970 1857-1958, limits assumed, looked up): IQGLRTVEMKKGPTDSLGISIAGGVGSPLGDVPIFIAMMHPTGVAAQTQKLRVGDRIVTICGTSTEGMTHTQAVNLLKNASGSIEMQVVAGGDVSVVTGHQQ

DLG1_3, Q12959 = biological target: DLG1_3, Q12959
APBA2_1, Q99767 = biological target: T4, APBA2_1, Q99767
T4 sequence (Q99767 563-664, limits assumed, looked up): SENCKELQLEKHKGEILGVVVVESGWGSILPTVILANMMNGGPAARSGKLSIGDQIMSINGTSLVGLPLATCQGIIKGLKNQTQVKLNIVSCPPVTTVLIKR

GRIP2_7, Q9C0E4 = biological target: GRIP2_7, Q9C0E4
LNX1_3, Q8TBB1 = biological target: LNX1_3, Q8TBB1
NHERF4_4, Q86UT5 = biological target: NHERF4_4, Q86UT5
GRIP1_7, Q9Y3R0 = biological target: T5, GRIP1_7, Q9Y3R0
T5 sequence (Q9Y3R0 999-1096, limits assumed, looked up): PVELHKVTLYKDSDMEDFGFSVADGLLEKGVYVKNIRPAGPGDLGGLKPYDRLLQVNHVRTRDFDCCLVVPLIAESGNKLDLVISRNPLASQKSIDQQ

LRRC7, Q96NW7 = biological target: T6, LRRC7, Q96NW7
T6 sequence (Q96NW7 1440-1537, limits assumed, looked up): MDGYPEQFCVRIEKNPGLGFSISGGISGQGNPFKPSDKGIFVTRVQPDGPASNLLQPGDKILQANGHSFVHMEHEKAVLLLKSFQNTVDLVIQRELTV

PTPN13_1, Q12923 = biological target: T7, PTPN13_1, Q12923
T7 sequence (Q12923 1088-1188, limits assumed, looked up): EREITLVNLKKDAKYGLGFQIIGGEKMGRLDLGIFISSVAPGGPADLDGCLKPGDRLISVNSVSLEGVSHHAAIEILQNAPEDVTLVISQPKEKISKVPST

TJP3_3, O95049 = biological target: T8, TJP3_3, O95049
T8 sequence (O95049 375-456, limits assumed, looked up): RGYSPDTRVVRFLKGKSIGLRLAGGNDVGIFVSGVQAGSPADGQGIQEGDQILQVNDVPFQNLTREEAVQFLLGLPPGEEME

MPDZ_10, O75970 = biological target: T9, MPDZ_10, O75970
T9 sequence (O75970 1624-1722, limits assumed, looked up): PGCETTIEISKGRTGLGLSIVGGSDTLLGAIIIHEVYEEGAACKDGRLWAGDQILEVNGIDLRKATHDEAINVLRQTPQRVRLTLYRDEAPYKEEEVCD

MAGI2_2, Q86UL8 = biological target: MAGI2_2, Q86UL8
DLG1_1, Q12959 = biological target: DLG1_1, Q12959
DFNB31_2, Q9P202 = biological target: T10, DFNB31_2, Q9P202
T10 sequence (Q9P202 274-371, limits assumed, looked up): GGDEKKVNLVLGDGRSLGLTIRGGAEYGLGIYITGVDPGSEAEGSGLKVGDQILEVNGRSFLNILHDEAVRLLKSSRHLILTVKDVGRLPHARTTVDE

SNTA1, Q13424 = biological target: T11, SNTA1, Q13424
T11 sequence (Q13424 82-180, limits assumed, looked up): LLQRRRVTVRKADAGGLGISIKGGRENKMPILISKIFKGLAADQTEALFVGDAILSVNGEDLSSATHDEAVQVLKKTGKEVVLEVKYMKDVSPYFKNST

SYNJ2BP, P57105 = biological target: T12, SYNJ2BP, P57105
T12 sequence (P57105 8-110, limits assumed, looked up): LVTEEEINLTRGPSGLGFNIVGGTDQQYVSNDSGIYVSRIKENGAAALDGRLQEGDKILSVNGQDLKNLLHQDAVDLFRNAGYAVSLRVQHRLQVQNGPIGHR

DLG1_2, Q12959 = biological target: DLG1_2, Q12959
RHPN1, Q8TCX5 = biological target: T13, RHPN1, Q8TCX5
T13 sequence (Q8TCX5 508-602, limits assumed, looked up): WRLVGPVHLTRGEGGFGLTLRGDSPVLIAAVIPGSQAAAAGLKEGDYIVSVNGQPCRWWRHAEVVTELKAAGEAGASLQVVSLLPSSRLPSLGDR

[1] = plain residues with an end cap or a label only (N-terminal biotin on a linker: ahx)
[2] = plain residues with an end cap or a label only (N-terminal biotin on a linker: ado-ado)
[3] = plain residues with an end cap or a label only (N-terminal biotin on a linker: (peg)3)

MAGI2_4, Q86UL8, sequence (Q86UL8 772-865): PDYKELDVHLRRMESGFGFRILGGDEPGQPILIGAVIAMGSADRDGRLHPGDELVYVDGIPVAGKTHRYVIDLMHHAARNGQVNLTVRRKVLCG
LNX1_3, Q8TBB1, sequence (Q8TBB1 500-596): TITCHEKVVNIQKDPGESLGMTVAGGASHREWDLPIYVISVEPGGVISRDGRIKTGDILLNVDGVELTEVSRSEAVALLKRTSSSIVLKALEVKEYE
GRIP2_7, Q9C0E4, sequence (Q9C0E4 934-1023): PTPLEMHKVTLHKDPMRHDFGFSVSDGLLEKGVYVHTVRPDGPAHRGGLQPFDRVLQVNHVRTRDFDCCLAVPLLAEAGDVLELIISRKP
MAGI1_2, Q96QZ7, sequence (Q96QZ7 456-580): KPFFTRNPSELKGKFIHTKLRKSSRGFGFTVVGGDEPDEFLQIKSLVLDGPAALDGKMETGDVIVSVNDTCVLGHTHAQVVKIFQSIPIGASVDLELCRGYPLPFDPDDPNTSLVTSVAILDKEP
CASK, O14936, sequence (O14936 487-570): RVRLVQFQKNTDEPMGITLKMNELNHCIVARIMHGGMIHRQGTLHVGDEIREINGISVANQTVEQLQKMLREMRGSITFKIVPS
Inadl_5, Q8NI35, sequence (Q8NI35 673-780): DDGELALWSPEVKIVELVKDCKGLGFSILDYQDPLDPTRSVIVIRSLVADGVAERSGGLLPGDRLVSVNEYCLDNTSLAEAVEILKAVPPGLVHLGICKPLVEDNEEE
PDZRN4_1, Q6ZMN7, sequence (Q6ZMN7 213-318): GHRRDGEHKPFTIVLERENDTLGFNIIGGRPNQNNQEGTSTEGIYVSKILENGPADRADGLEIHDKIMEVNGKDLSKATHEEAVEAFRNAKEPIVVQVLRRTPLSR
MAGI2_2, Q86UL8, sequence (Q86UL8 410-522): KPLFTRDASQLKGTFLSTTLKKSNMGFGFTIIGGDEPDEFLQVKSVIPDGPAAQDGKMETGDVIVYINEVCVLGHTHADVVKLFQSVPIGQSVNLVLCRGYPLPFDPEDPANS
NHERF4_4, Q86UT5, sequence (Q86UT5 464-550): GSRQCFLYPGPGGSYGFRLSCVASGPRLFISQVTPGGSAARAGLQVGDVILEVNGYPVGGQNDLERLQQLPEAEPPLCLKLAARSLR

## TQKFRASTAL [FRMPD1, Q5SYB0]
NHERF3_1, Q5T2W1; [1]
  pKd: 5.47
Inadl_5, Q8NI35; [1]
  pKd: below the threshold
MAGI1_2, Q96QZ7; [1]
  pKd: 4.97
APBA3_1, O96018; [1]
  pKd: below the threshold
MAGI2_4, Q86UL8; [1]
  pKd: 3.48
CASK, O14936; [1]
  pKd: below the threshold
PDZRN4_1, Q6ZMN7; [1]
  pKd: 4.17
MPDZ_12, O75970; [1]
  pKd: below the threshold
DLG1_3, Q12959; [1]
  pKd: 3.49
APBA2_1, Q99767; [1]
  pKd: below the threshold
GRIP2_7, Q9C0E4; [1]
  pKd: below the threshold
LNX1_3, Q8TBB1; [1]
  pKd: below the threshold
NHERF4_4, Q86UT5; [1]
  pKd: below the threshold
GRIP1_7, Q9Y3R0; [1]
  pKd: below the threshold
LRRC7, Q96NW7; [1]
  pKd: below the threshold
PTPN13_1, Q12923; [1]
  pKd: below the threshold
TJP3_3, O95049; [1]
  pKd: below the threshold
MPDZ_10, O75970; [1]
  pKd: below the threshold
MAGI2_2, Q86UL8; [1]
  pKd: 4.18
DLG1_1, Q12959; [1]
  pKd: below the threshold
DFNB31_2, Q9P202; [1]
  pKd: below the threshold
SNTA1, Q13424; [1]
  pKd: below the threshold
SYNJ2BP, P57105; [1]
  pKd: 4.26
DLG1_2, Q12959; [1]
  pKd: 3.62
RHPN1, Q8TCX5; [1]
  pKd: 3.79

## AEASVACSLC [PTGIR, P43119]
NHERF3_1, Q5T2W1; [2]
  pKd: 4.51
Inadl_5, Q8NI35; [2]
  pKd: below the threshold
MAGI1_2, Q96QZ7; [2]
  pKd: below the threshold
APBA3_1, O96018; [2]
  pKd: below the threshold
MAGI2_4, Q86UL8; [2]
  pKd: 3.72
CASK, O14936; [2]
  pKd: below the threshold
PDZRN4_1, Q6ZMN7; [2]
  pKd: below the threshold
MPDZ_12, O75970; [2]
  pKd: 3.48
DLG1_3, Q12959; [2]
  pKd: below the threshold
APBA2_1, Q99767; [2]
  pKd: below the threshold
GRIP2_7, Q9C0E4; [2]
  pKd: below the threshold
LNX1_3, Q8TBB1; [2]
  pKd: below the threshold
NHERF4_4, Q86UT5; [2]
  pKd: below the threshold
GRIP1_7, Q9Y3R0; [2]
  pKd: below the threshold
LRRC7, Q96NW7; [2]
  pKd: below the threshold
PTPN13_1, Q12923; [2]
  pKd: below the threshold
TJP3_3, O95049; [2]
  pKd: below the threshold
MPDZ_10, O75970; [2]
  pKd: 3.47
MAGI2_2, Q86UL8; [2]
  pKd: below the threshold
DLG1_1, Q12959; [2]
  pKd: below the threshold
DFNB31_2, Q9P202; [2]
  pKd: below the threshold
SNTA1, Q13424; [2]
  pKd: below the threshold
SYNJ2BP, P57105; [2]
  pKd: below the threshold
DLG1_2, Q12959; [2]
  pKd: below the threshold
RHPN1, Q8TCX5; [2]
  pKd: below the threshold

## NTANRRTTPV [CACNG2, Q9Y698]
NHERF3_1, Q5T2W1; [2]
  pKd: below the threshold
Inadl_5, Q8NI35; [2]
  pKd: below the threshold
MAGI1_2, Q96QZ7; [2]
  pKd: 4.72
APBA3_1, O96018; [2]
  pKd: below the threshold
MAGI2_4, Q86UL8; [2]
  pKd: below the threshold
CASK, O14936; [2]
  pKd: below the threshold
PDZRN4_1, Q6ZMN7; [2]
  pKd: below the threshold
MPDZ_12, O75970; [2]
  pKd: below the threshold
DLG1_3, Q12959; [2]
  pKd: 4.16
APBA2_1, Q99767; [2]
  pKd: below the threshold
GRIP2_7, Q9C0E4; [2]
  pKd: below the threshold
LNX1_3, Q8TBB1; [2]
  pKd: below the threshold
NHERF4_4, Q86UT5; [2]
  pKd: below the threshold
GRIP1_7, Q9Y3R0; [2]
  pKd: below the threshold
LRRC7, Q96NW7; [2]
  pKd: below the threshold
PTPN13_1, Q12923; [2]
  pKd: below the threshold
TJP3_3, O95049; [2]
  pKd: below the threshold
MPDZ_10, O75970; [2]
  pKd: 3.87
MAGI2_2, Q86UL8; [2]
  pKd: 4.98
DLG1_1, Q12959; [2]
  pKd: 4.34
DFNB31_2, Q9P202; [2]
  pKd: below the threshold
SNTA1, Q13424; [2]
  pKd: 4.1
SYNJ2BP, P57105; [2]
  pKd: 5.08
DLG1_2, Q12959; [2]
  pKd: 5.01
RHPN1, Q8TCX5; [2]
  pKd: below the threshold

## RRRRSQSRESQC [HBV-HBc, P03193]
NHERF3_1, Q5T2W1; [3]
  pKd: 4.44
Inadl_5, Q8NI35; [3]
  pKd: below the threshold
MAGI1_2, Q96QZ7; [3]
  pKd: 4.07
APBA3_1, O96018; [3]
  pKd: below the threshold
MAGI2_4, Q86UL8; [3]
  pKd: below the threshold
CASK, O14936; [3]
  pKd: below the threshold
PDZRN4_1, Q6ZMN7; [3]
  pKd: below the threshold
MPDZ_12, O75970; [3]
  pKd: below the threshold
DLG1_3, Q12959; [3]
  pKd: 3.98
APBA2_1, Q99767; [3]
  pKd: below the threshold
GRIP2_7, Q9C0E4; [3]
  pKd: below the threshold
LNX1_3, Q8TBB1; [3]
  pKd: below the threshold
NHERF4_4, Q86UT5; [3]
  pKd: below the threshold
GRIP1_7, Q9Y3R0; [3]
  pKd: below the threshold
LRRC7, Q96NW7; [3]
  pKd: below the threshold
PTPN13_1, Q12923; [3]
  pKd: below the threshold
TJP3_3, O95049; [3]
  pKd: below the threshold
MPDZ_10, O75970; [3]
  pKd: below the threshold
MAGI2_2, Q86UL8; [3]
  pKd: 4.4
DLG1_1, Q12959; [3]
  pKd: 4.23
DFNB31_2, Q9P202; [3]
  pKd: below the threshold
SNTA1, Q13424; [3]
  pKd: 4.44
SYNJ2BP, P57105; [3]
  pKd: 4.59
DLG1_2, Q12959; [3]
  pKd: 4.58
RHPN1, Q8TCX5; [3]
  pKd: below the threshold
